Consider 5 molecules from patent publication US20200103410A1 (ECS PROGASTRIN, published 2020).

T1: human progastrin (full length) (human)
T1 construct: also called hPG; PG
T1 chain: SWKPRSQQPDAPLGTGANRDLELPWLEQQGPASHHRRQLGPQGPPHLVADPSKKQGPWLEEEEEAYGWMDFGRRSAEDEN

B1: mAb13 (hybridoma 2C6C3C7) (antibody, V domains shown)
VH: EVQLVESGGGLVQPGGSLKLSCAASGFIFSSYGMSWVRQSPDRRLELVASINTFGDRTYYPDSVKGRFTISRDNAKNTLYLQMTSLKSEDTAIYYCARGTGTYWGQGTTLTVSS
VL: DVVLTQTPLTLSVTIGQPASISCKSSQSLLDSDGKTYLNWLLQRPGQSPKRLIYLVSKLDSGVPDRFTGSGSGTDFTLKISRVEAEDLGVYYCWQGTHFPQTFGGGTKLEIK
notes: Murine monoclonal antibody
B2: mAb19 (hybridoma 1B3B4F11) (antibody, V domains shown)
VH: DVQLQESGPGLVKPSQSLSLTCTVTGYSITSDYAWNWIRQFPGNKLEWMGYISFSGYTSYNPSLKSRISVTRDTSRNQFFLQLTSVTTEDTATYYCAREVNYGDSYHFDYWGQGTIVTVSS
VL: QLALTQSSSASFSLGASAKLTCTLSSQHRTYTIEWYQQQSLKPPKYVMEVKKDGSHSTGHGIPDRFSGSSSGADRYLSISNIQPEDEAIYICGVGDAIKGQSVFVFGGGTKVTVL
notes: Murine monoclonal antibody
B3: mAb16 (hybridoma 1E9D9B6) (antibody, V domains shown)
VH: QVQLQQSGAELVKPGASVKLSCKASGYTFTSYYMYWVKQRPGQGLEWIGEINPSNGGTNFNEKFKSKATLTVDKSSSTAYMQLSSLTSEDSAVYYCTRGGYYPFDYWGQGTTLTVSS
VL: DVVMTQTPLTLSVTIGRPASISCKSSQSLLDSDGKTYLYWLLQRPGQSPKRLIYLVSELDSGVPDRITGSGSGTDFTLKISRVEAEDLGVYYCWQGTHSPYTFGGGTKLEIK
notes: Murine monoclonal antibody
B4: mAb3 (hybridoma 6B5B11C10) (antibody, V domains shown)
VH: EVQLQQSGTVLARPGASVKMSCKASGYIFTSYWVHWVKQRPGQGLEWIGGFYPGNSDSRYNQKFKGKATLTAVTSASTAYMDLSSLTNEDSAVYFCTRRDSPQYWGQGTTLTVSS
VL: DVLMTQTPLSLPVSLGDQASISCRSSQSIVHSNGNTYLEWYLQKPGQSPKLLIYKVSNRFSGVPDRFSGSGSGTDFTLKISRLEAEDLGVYYCFQGSHVPFTFGGGTKLEIK
notes: Murine monoclonal antibody
B5: mAb4 (hybridoma 20D2C3G2) (antibody, V domains shown)
VH: QVQLQQSGAELMKPGASVKISCKATGYTFSSSWIEWLKQRPGHGLEWIGEFLPGSGSTDYNEKFKGKATFTADTSSDTAYMLLSSLTSEDSAVYYCATDGNYDWFAYWGQGTLVTVSA
VL: DLVMTQTPLSLPVSLGDQASISCRSSQSLVHSSGVTYLHWYLQKPGQSPKLLIYKVSNRFSGVPDRFSGSGSGTDFTLKISRVEAEDLGVYFCSQSTHVPPTFGSGTKLEIK
notes: Murine monoclonal antibody

The target in the test is T1, human progastrin (full length). Put plainly: epitope mapping (no details given).
Consider B1, for which the binding result is listed as “binds”. Next, B2: “binds”. As to B3, the binding result is recorded as “binds”. Next, B4: “binds”; B5: “binds”.
